Patent US20080008703A1 (YUHAN, published 2008)

Legend:
[1] = molecular target: T1, recombinant human tumor necrosis factor-α (Biosource, USA) (human, UniProt P01375 77-233); assay: SPR (Biacore2000), hTNF-α immobilized on CM5 chip, antibody 25-400 nM as analyte
T1 construct: also called hTNF-α; TNF-α
Protocol: (§1) Then, association and dissociation constants of the reactions were measured by Biacore2000 (Biacore, Sweden).

[2] = molecular target: T1, recombinant human tumor necrosis …; assay: cell-based or functional assay
[3] = molecular target: T1, recombinant human tumor necrosis …; assay: competitive ELISA (Friguet method), antibody pre-incubated with soluble hTNF-α, plate coated with hTNF-α
Protocol: For antibody quantification, 100 ng of goat anti-human immunoglobulin G.A.M (Zymed Laboratories Inc., USA) was distributed into each well of a microplate (Dynatech Laboratories Inc., USA) and the well plate was kept at 4° C. overnight to coat it with the immunoglobulin. At this time, mouse monoclonal antibody TSK114 was used as a control.
Each of the reactants was added to the well plate coated with 0.4 μg of the antigen and the well plate was kept at 37° C. for about 1.5 hrs. A goat anti-human polyclonal antibody (BioRad, USA) conjugated with horseradish peroxidase was diluted at a ratio of 1:1000 and 100 μl of the diluted antibody solution was added to each well. The well plate was kept at 37° C. for 1 hr. After the reaction was completed, the optical density of each well was measured using a horseradish peroxidase substrate kit (BioRad, USA).
Concentrations of the antibody bound to the antigen and the unbound antibody were calculated from the measured optical density, and antigen-binding affinity of the humanized antibodies were determined therefrom (Friguet B. et al., J. Immunol. Meth., 77: 305-319, 1985).

[4] = molecular target: T1, recombinant human tumor necrosis …; assay: SPR (Biacore2000), hTNF-α immobilized
Protocol: as §1

T1 sequence (P01375 77-233 limits assumed): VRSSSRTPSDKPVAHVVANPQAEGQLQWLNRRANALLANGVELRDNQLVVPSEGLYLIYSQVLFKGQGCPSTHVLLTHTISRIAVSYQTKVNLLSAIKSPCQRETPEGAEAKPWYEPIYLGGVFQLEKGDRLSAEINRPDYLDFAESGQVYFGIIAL

| Binder | Kd [1] [nM] | koff [1] [s⁻¹] | kon [1] [M⁻¹ s⁻¹] | IC50 (concentration of the antibodies inhibiting cell death by 50%), WHEI 164 cells, MTT [2] [ng/mL] | Kd [3] [nM] | fold higher antigen binding affinity than mouse monoclonal antibody TSK114 [4] [fold] |
| --- | --- | --- | --- | --- | --- | --- |
| mouse monoclonal antibody TSK114 (antibody, V domains shown, Mouse monoclonal antibody (deposits KCTC 10514BP and KCTC 10515BP); also called Mouse antibody TSK114) VH: QVQLVQSGPELKKPGETVKISCKASGYTFTHYGMNWVKQAPGEGLKWMGWINTNTGEPRYDEEFKGRFAFSLETSASTAYLQINNLRREDTATYFCARYDSRGFDCWGQGTTLTVSS VL: QIVLTQSPAIMSASLGERVTMTCTASSSISYNYFHWYQQRPGSSPKLWIYSSSNLASGVPPRISGSGSGTSYSLTISSMEAEDAATYYCHQYERSPWTFGGGTKLEIKR | 0.00579 | 2.39e-07 | 41200 | 4.7 | 0.14 | – |
| humanized antibody YHB1411 (antibody, V domains shown, Human heavy and kappa light constant regions come from pHAB-HC and pHAB-KC) VH: QVQLVQSGPELKKPGASVKVSCKASGYTFTHYGMNWVRQAPGKGLEWMGWINTNTGEPRYDEEFKGRVTMTRDTSASTAYMELSSLRSEDTAVYYCARYDSRGFDCWGQGTTVTVSS VL: QIVMTQSPSSLSASVGERVTITCTASSSISYNYFHWYQQKPGSAPKLWIYSSSNLASGVPSRFSGSGSGTDFTFTISSLQPEDIATYYCHQYERSPWTFGGGTKVEIKR | – | – | – | 6.7 | 0.2 | – |
| humanized antibody YHB1406 (antibody, V domains shown, Human heavy chain constant region comes from vector pHAB-HC and human kappa light chain constant region from pHAB-KC) VH: QVQLVQSGPELKKPGASVKVSCKASGYTFTHYGMNWVRQAPGQGLEWMGWINTNTGEPRYDEEFKGRVTMTRDTSASTAYMELSSLRSEDTAVYYCARYDSRGFDCWGQGTTVTVSS VL: QIVMTQSPSSLSASVGERVTITCTASSSISYNYFHWYQQKPGSAPKLWIYSSSNLASGVPSRFSGSGSGTDFTFTISSLQPEDIATYYCHQYERSPWTFGGGTKVEIKR | – | – | – | 9.2 | 0.22 | – |
| humanized antibody YHB1406-2 (antibody, V domains shown, Human heavy and kappa light constant regions come from pHAB-HC and pHAB-KC) VH: QVQLVQSGPELKKPGASVKVSCKASGYTFTHYGMNWVRQAPGKGLEWMGWINTNTGEPRYDEEFKGRVTMTRDTSASTAYMELSSLRSEDTAVYYCARYDSRGFDCWGQGTTLTVSS VL: DIVMTQSPSSLSASVGERVTITCTASSSISYNYFHWYQQKPGSAPKLWIYSSSNLASGVPSRFSGSGSGTDFTFTISSLQPEDIATYYCHQYERSPWTFGGGTKVEIKR | – | – | – | 6.5 | 0.29 | – |
| humanized antibody YHB1411-2 (antibody, V domains shown, Human heavy and kappa light constant regions come from pHAB-HC and pHAB-KC; also called YBB1411-2) VH: QVQLVQSGPELKKPGASVKVSCKASGYTFTHYGMNWVRQAPGKGLEWMGWINTNTGEPRYDEEFKGRVTMTRDTSASTAYMELSSLRSEDTAVYYCARYDSRGFDCWGQGTTVTVSS VL: DIVMTQSPSSLSASVGERVTITCTASSSISYNYFHWYQQKPGSAPKLWIYSSSNLASGVPSRFSGSGSGTDFTFTISSLQPEDIATYYCHQYERSPWTFGGGTKVEIKR | 0.00171 | 6.8e-08 | 39600 | 5.5 | 0.2 | ~3 |
